Assay results taken from the supplement of paper PMC9170038.

Columns and labels:
MS2 coat protein [1] = assay: apparent KD of MS2 coat protein, switch ON state; designed switch direction (-1 OFF switch, 1 ON switch): -1; higher = weaker reporter binding; details: FMN input: 0 or 200 uM; Eterna round: R93 (includes R88 designs)
In short: (§1)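 Illumina sequencing clusters were used for on-chip transcription of designed RNA switches. Titration with SNAP-549-labelled MS2 coat protein followed, in twofold steps from 0.7 or 1.5 nM to 3 µM in 100 mM Tris-HCl pH 7.5, 80 mM KCl, 4 mM MgCl2, without or with constant ligand. Apparent KD is each design's median of fits to normalised cluster binding curves.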

MS2 coat protein [2] = assay: apparent KD of MS2 coat protein, switch OFF state (with FMN for OFF switches, without FMN for ON switches); designed switch direction (-1 OFF switch, 1 ON switch): -1; higher = weaker reporter binding; details: FMN input: 0 or 200 uM; Eterna round: R93 (includes R88 designs)
In short: as §1

Sequence	apparent KD of MS2 coat protein (MS2 coat protein [1])	apparent KD of MS2 coat protein (MS2 coat protein [2])
AAAACGGUAGGAUAUACGAUUUGGUACUAGACCGAGGAACCACAUGAGGAUCACCCAUGUAGAAGGACCAAAAA [EX2 Malc#19]	13 nM	14 nM
CCUAAACAUGAGGAUCACCCAUGUGAGGAUAUGAUGCGAAUAAAGAAAGAAGAAAGCAUCAGAAGGCACAUAGG	41.1 nM	283 nM
AUAAAGACAGGAUAUACAUGAGGAUCACCCAUGUAAAAAAAAAAAAGUUCCUCAAAAAGUAGAAGGGUCAAUAA [JR_Exc003_Sub014]	28.4 nM	119 nM
AAGGUACGAGGAUAUACAUAGAUACAGAUACAUGUAGACGUACAUGAGGAUCACCCAUGUAGAAGGCGUAUAUA [AJ 24]	46.8 nM	83 nM
AAGAAGGGAGGAUAUACUAAAGAAAUGAAAAGAAAUAAAGAACAUGAGGAUCACCCAUGUAGAAGGCCCAAGAA [Nehesy]	29.7 nM	24.8 nM
CCCAUGUCAGGAUAUCAGUAGUAAAAAAAAAAAAUUACUACUGAGAAGGGACAUGAGGAUCACCCAUGUCAAAA [EX4 315: Super Stable 15]	80.2 nM	21 nM
AACAUGUCAGGAUAUGUACGAAAAAAUAAAAAAAUAAAAGUACAGAAGGGACAUGAGGAUCACCCAUGUCAAAA [EX4 394: Minimal 7]	33.4 nM	47.4 nM
AAAGGACGAGGAUAUACAUGAGGAUCACCCAUGUAAAAAACGUAAGAAAAGAAGUUAUGUAGAAGGCGUCCAAA [69%, Moding Meechl, 14]	15.5 nM	20.6 nM
AAGAGUACAGGAUAUAUAUGAAAAGAGUCGAAAGACUCAAAACAUGAGGAUCACCCAUGUAGAAGGGUACUCAA [Hyphema Seclusion Mod 62% 1]	36.8 nM	22.9 nM
AAAAAGUGAGGAUAUUCGGAUAGGAAAACGAAAACCUAUCCGAAGAAGGCACAUGAGGAUCACCCAUGUGAGAA [67% Ecls-II - Early G + late G segment 4]	26.5 nM	51.3 nM
AAAAAGUCAGGAUAUCGGAAAAUAAAAAUAAAAAUAAAAAACGAGAAGGGACAUGAGGAUCACCCAUGUAUGAC [Mat - Exclusion 4 - Mayanna - D114]	27.6 nM	24.6 nM
AAAACUGGAGGAUAUACAUGAGGAUCACCCAUGUGUGGAUGAGCUGUGUCGGCGUCAAGUAGAAGGCCACAAAA [Gilly Gone Silly 36 - Jieux - Exclusion 3]	36.7 nM	43.1 nM
GAAGAACAUGAGGAUCACCCAUGUCAGGAUAUGCACUACGGAAUAAUAAGUAAUGGAAGUAGAAGGGACAAGAA [Ex 1 May 53]	26.2 nM	26.4 nM
AAUAAGUCAGGAUAUACUAUGUCAGGAGAGAGACUGACUAUGUAGAAGGGACAUGAGGAUCACCCAUGUAAUAA [JR_Exclusion4_Sub5]	47.4 nM	36.1 nM
UCACACCUAGGAUAUACAUGAGGAUCACCCAUGUGGCACUCCGCAGGCAUUGCUCCCAGUAGAAGGAGGACACG [Veterexe]	18.9 nM	23.8 nM
AAGAAACAUGAGGAUCACCCAUGUGAGGAUAUCGAAGAAAGAAAGAAAGAAAGAAGAACGAGAAGGCACAAAGG [Publius Octavius]	42.7 nM	59.3 nM
AAAAAAAGAGGAUAUACGUGAAAAAUAAAAAUGUAAAAACCACAUGAGGAUCACCCAUGUAGAAGGCUUAAAAA [Ecx-I 62% 2]	26.4 nM	22.8 nM
AUAAAGUGAGGAUAUACAUGAGGAUCACCCAUGUAAGAAAUAAAAUAAAUAAAGGGAAGUAGAAGGCACAAAUA [Denovo 1]	35.8 nM	41.3 nM
AAGGUAUGAGGAUAUACAUAGAUACAGACACAUGUUCAAGUACAUGAGGAUCACCCAUGUAGAAGGCAUAUAUA [AJ 14]	24.2 nM	33 nM
AGAAAGGCAGGAUAUACAUGAGGAUCACCCAUGUUAAGAGUGACGGAAACGUCACGAAGUAGAAGGGCCAAGAA [The song I sing]	20.4 nM	17.3 nM
AGCUAGUCAGGAUAUACGAACAUGUCGGAAGACGUGAAGGGACAUGAGGAUCACCCAUGUAGAAGGGACUAGCA [Mat - Exclusion 2 - JL mod - D3]	33.1 nM	136 nM
CUCAAGUUAGGAUAUCCAAGAAAAGAAGAGAAAGAAAAGAAGGAGAAGGAACAUGAGGAUCACCCAUGUAAGAA [EteRNA is fun!]	32.8 nM	38.5 nM
